Assay results taken from article PMC3044691 (2011).

Molecular target: monomeric sCD4 (D1D2)
Assay: SPR

B1: JR-FL gp120 (natural protein)
chain: not shown
B1 gave a Kd of 12 nM.
